Assay results reported in publication PMC2714988, “Dimerization of Hepatitis E Virus Capsid Protein E2s Domain Is Essential for Virus–Host Interaction” (PLoS Pathogens, 2009).

How the values were obtained:
[1] = target: HEV capsid protein domain E2s (ORF2 aa455-602) (Hepatitis E virus) (UniProt Q81871); test: AUC; sedimentation velocity; 20°C; E2s 1 mg/ml in phosphate-buffered saline pH 7.4; 60,000 rpm; c(s) method
[2] = target: HEV capsid protein domain E2s (ORF2 aa455-602) (Hepatitis E virus) (UniProt Q81871); test: SEC; Superdex 75 10/300GL in phosphate-buffered saline pH 7.4, 0.5 ml/min, against molecular weight standards
[3] = target: HEV capsid protein domain E2s (ORF2 aa455-602) (Hepatitis E virus) (UniProt Q81871); test: AUC; sedimentation equilibrium; 20°C; phosphate-buffered saline pH 7.4; E2s at 0.69, 0.36 and 0.14 OD; 18,000, 21,000 and 24,000 rpm; single ideal species model and self-association monomer-dimer model; dimer to monomers
[4] = target: E2-Y485A (Hepatitis E virus) (UniProt Q81871); test: non-reducing SDS-PAGE; loading buffer with only 0.1% SDS, no BME, sample not boiled; compared with MW markers
[5] = target: E2s-Y557A (Hepatitis E virus) (UniProt Q81871); test: AUC; sedimentation equilibrium; 20°C; phosphate-buffered saline pH 7.4; E2s at 0.69, 0.36 and 0.14 OD; 18,000, 21,000 and 24,000 rpm; single ideal species model and self-association monomer-dimer model; dimer to monomers
[6] = target: E2-E479A (Hepatitis E virus) (UniProt Q81871); test: non-reducing SDS-PAGE; loading buffer with only 0.1% SDS, no BME, sample not boiled; compared with MW markers
[7] = target: E2-R542A (Hepatitis E virus) (UniProt Q81871); test: not stated; 'in solution'; the paragraph names non-reducing SDS-PAGE, analytical ultracentrifugation and gel filtration for the mutants without telling which was used here
[8] = target: E2-K534A (Hepatitis E virus) (UniProt Q81871); test: non-reducing SDS-PAGE; loading buffer with only 0.1% SDS, no BME, sample not boiled; compared with MW markers
[9] = target: E2-D496A (Hepatitis E virus) (UniProt Q81871); test: as above
[10] = target: E2-I529A (Hepatitis E virus) (UniProt Q81871); test: as above
[11] = target: HEV capsid protein E2 (ORF2 aa394-606), wild type (Hepatitis E virus, UniProt Q81871 394-606); test: as above; conditions: both partners purified

HEV capsid protein domain E2s (ORF2 aa455-602) (from UniProt Q81871 455-602) (domain or fragment)
stoichiometry N [1]: 2 | stoichiometry N [2]: 2 | Kd [3]: 397 nM | stoichiometry N [3]: 2

E2-Y485A (from UniProt Q81871 394-606) (domain or fragment)
stoichiometry N [4]: 2

E2s-Y557A (from UniProt Q81871 455-602) (domain or fragment)
stoichiometry N [5]: 2

E2-E479A (from UniProt Q81871 394-606) (domain or fragment)
stoichiometry N [6]: 2

E2-R542A (from UniProt Q81871 394-606) (domain or fragment)
stoichiometry N [7]: 2

E2-K534A (from UniProt Q81871 394-606) (domain or fragment)
stoichiometry N [8]: 2

E2-D496A (from UniProt Q81871 394-606) (domain or fragment)
stoichiometry N [9]: 2

E2-I529A (from UniProt Q81871 394-606) (domain or fragment)
stoichiometry N [10]: 2

B1: HEV capsid protein E2 (ORF2 aa394-606), wild type (domain or fragment)
chain: MQLFYSRPVVSANGEPTVKLYTSVENAQQDKGIAIPHDIDLGESRVVIQDYDNQHEQDRPTPSPAPSRPFSVLRANDVLWLSLTAAEYDQSTYGSSTGPVYVSDSVTLVNVATGAQAVARSLDWTKVTLDGRPLSTIQQHSKTFFVLPLRGKLSFWEAGTTKAGYPYNYNTTASDQLLVENAAGHRVAISTYTTSLGAGPVSISAVAVLAPHSA
modifications: Wild-type E2, aa394-606, with start Met. The E2s gene was amplified from this E2 gene, so aa455-602 are taken from 3GGQ; the flanks come from genotype 1 Q81871 because the strain is not printed. …
stoichiometry N [11]: 2
